Measurements published in the Human Domainome abundance scans (Beltran et al. 2025).
± gives the uncertainty stated by the source.

B1: Serine/threonine-protein kinase A-Raf, residues 21 to 89; numbered along this chain, P10398 (parent)
chain: VKVYLPNKQRTVVTVRDGMSVYDSLDKALKVRGLNQDCCVVYRLIKGRKTVTAWDTAIAPLDGEELIVE

Variants of: B1
Assay: abundance fitness (aPCA) (normalised: wild type 0, dead -1); higher = more abundant; growth selection in yeast, the domain comes from the species named
Conditions: Homo sapiens

| Variant | abundance fitness |
| --- | --- |
| VKVYLPNKQRTVVTVRDGMSVYDSLDKALKVRGLNQDCCVVYRLIKGRKTVTAWDTAIAPLEGEELIVE | -0.128 ± 0.073 |
| VKVYLPNKQRTVVTVRDGMSVYDSLDKALKVRGLNQDCCVVYRLIKGRKTVTAWDTAIAPLCGEELIVE | 0.13 ± 0.2 |
| VKVYLPNKQRTVVTVRDGMSVYDSLDKALKVRGLNQDCCVVYRLIKGRKTVTAWDTAIAPLNGEELIVE | -0.051 ± 0.21 |
| VKVYLPNKQRTVVTVRDGMSVYDSLDKALKVRGLNQDCCVVYRLIKGRKTVTAWDTAIAPLSGEELIVE | 0.036 ± 0.058 |
| VKVYLPNKQRTVVTVRDGMSVYDSLDKALKVRGLNQDCCVVYRLIKGRKTVTAWDTAIAPLRGEELIVE | -0.049 ± 0.042 |
| VKVYLPNKQRTVVTVRDGMSVYDSLDKALKVRGLNQDCCVVYRLIKGRKTVTAWDTAIAPLMGEELIVE | -0.062 ± 0.087 |
| VKVYLPNKQRTVVTVRDGMSVYDSLDKALKVRGLNQDCCVVYRLIKGRKTVTAWDTAIAPLIGEELIVE | -0.015 ± 0.12 |
| VKVYLPNKQRTVVTVRDGMSVYDSLDKALKVRGLNQDCCVVYRLIKGRKTVTAWDTAIAPLKGEELIVE | -0.097 ± 0.077 |
| VKVYLPNKQRTVVTVRDGMSVYDSLDKALKVRGLNQDCCVVYRLIKGRKTVTAWDTAIAPLPGEELIVE | -0.095 ± 0.073 |
| VKVYLPNKQRTVVTVRDGMSVYDSLDKALKVRGLNQDCCVVYRLIKGRKTVTAWDTAIAPLLGEELIVE | -0.078 ± 0.054 |
| VKVYLPNKQRTVVTVRDGMSVYDSLDKALKVRGLNQDCCVVYRLIKGRKTVTAWDTAIAPLTGEELIVE | -0.111 ± 0.056 |
| VKVYLPNKQRTVVTVRDGMSVYDSLDKALKVRGLNQDCCVVYRLIKGRKTVTAWDTAIAPLGGEELIVE | -0.047 ± 0.045 |
| VKVYLPNKQRTVVTVRDGMSVYDSLDKALKVRGLNQDCCVVYRLIKGRKTVTAWDTAIAPLFGEELIVE | -0.608 ± 0.19 |
| VKVYLPNKQRTVVTVRDGMSVYDSLDKALKVRGLNQDCCVVYRLIKGRKTVTAWDTAIAPLYGEELIVE | -0.311 ± 0.16 |
| VKVYLPNKQRTVVTVRDGMSVYDSLDKALKVRGLNQDCCVVYRLIKGRKTVTAWDTAIAPLAGEELIVE | 0.004 ± 0.064 |
| VKVYLPNKQRTVVTVRDGMSVYDSLDKALKVRGLNQDCCVVYRLIKGRKTVTAWDTAIAPLHGEELIVE | -0.073 ± 0.12 |
| VKVYLPNKQRTVVTVRDGMSVYDSLDKALKVRGLNQDCCVVYRLIKGRKTVTAWDTAIAPLDMEELIVE | -0.269 ± 0.1 |
| VKVYLPNKQRTVVTVRDGMSVYDSLDKALKVRGLNQDCCVVYRLIKGRKTVTAWDTAIAPLDQEELIVE | -0.466 ± 0.1 |
| VKVYLPNKQRTVVTVRDGMSVYDSLDKALKVRGLNQDCCVVYRLIKGRKTVTAWDTAIAPLDPEELIVE | -0.533 ± 0.11 |
| VKVYLPNKQRTVVTVRDGMSVYDSLDKALKVRGLNQDCCVVYRLIKGRKTVTAWDTAIAPLDHEELIVE | -0.63 ± 0.47 |

| Variant | abundance fitness |
| --- | --- |
| VKVYLPNKQRTVVTVRDGMSVYDSLDKALKVRGLNQDCCVVYRLIKGRKTVTAWDTAIAPLDWEELIVE | -0.78 ± 0.12 |
| VKVYLPNKQRTVVTVRDGMSVYDSLDKALKVRGLNQDCCVVYRLIKGRKTVTAWDTAIAPLDYEELIVE | -0.376 ± 0.14 |
| VKVYLPNKQRTVVTVRDGMSVYDSLDKALKVRGLNQDCCVVYRLIKGRKTVTAWDTAIAPLDAEELIVE | -0.142 ± 0.086 |
| VKVYLPNKQRTVVTVRDGMSVYDSLDKALKVRGLNQDCCVVYRLIKGRKTVTAWDTAIAPLDREELIVE | -0.799 ± 0.073 |
| VKVYLPNKQRTVVTVRDGMSVYDSLDKALKVRGLNQDCCVVYRLIKGRKTVTAWDTAIAPLDSEELIVE | -0.107 ± 0.098 |
| VKVYLPNKQRTVVTVRDGMSVYDSLDKALKVRGLNQDCCVVYRLIKGRKTVTAWDTAIAPLDVEELIVE | -0.097 ± 0.06 |
| VKVYLPNKQRTVVTVRDGMSVYDSLDKALKVRGLNQDCCVVYRLIKGRKTVTAWDTAIAPLDNEELIVE | -0.265 ± 0.31 |
| VKVYLPNKQRTVVTVRDGMSVYDSLDKALKVRGLNQDCCVVYRLIKGRKTVTAWDTAIAPLDKEELIVE | -0.722 ± 0.17 |
| VKVYLPNKQRTVVTVRDGMSVYDSLDKALKVRGLNQDCCVVYRLIKGRKTVTAWDTAIAPLDTEELIVE | -0.128 ± 0.084 |
| VKVYLPNKQRTVVTVRDGMSVYDSLDKALKVRGLNQDCCVVYRLIKGRKTVTAWDTAIAPLDEEELIVE | -0.486 ± 0.094 |
| VKVYLPNKQRTVVTVRDGMSVYDSLDKALKVRGLNQDCCVVYRLIKGRKTVTAWDTAIAPLDFEELIVE | -0.279 ± 0.1 |
| VKVYLPNKQRTVVTVRDGMSVYDSLDKALKVRGLNQDCCVVYRLIKGRKTVTAWDTAIAPLDCEELIVE | -0.055 ± 0.07 |
| VKVYLPNKQRTVVTVRDGMSVYDSLDKALKVRGLNQDCCVVYRLIKGRKTVTAWDTAIAPLDDEELIVE | -0.187 ± 0.16 |
| VKVYLPNKQRTVVTVRDGMSVYDSLDKALKVRGLNQDCCVVYRLIKGRKTVTAWDTAIWPLDGEELIVE | -0.14 ± 0.065 |
| VKVYLPNKQRTVVTVRDGMSVYDSLDKALKVRGLNQDCCVVYRLIKGRKTVTAWDTAIRPLDGEELIVE | -0.007 ± 0.043 |
| VKVYLPNKQRTVVTVRDGMSVYDSLDKALKVRGLNQDCCVVYRLIKGRKTVTAWDTAIMPLDGEELIVE | 0.078 ± 0.06 |
| VKVYLPNKQRTVVTVRDGMSVYDSLDKALKVRGLNQDCCVVYRLIKGRKTVTAWDTAITPLDGEELIVE | 0.054 ± 0.058 |
| VKVYLPNKQRTVVTVRDGMSVYDSLDKALKVRGLNQDCCVVYRLIKGRKTVTAWDTAINPLDGEELIVE | -0.366 ± 0.21 |
| VKVYLPNKQRTVVTVRDGMSVYDSLDKALKVRGLNQDCCVVYRLIKGRKTVTAWDTAIPPLDGEELIVE | -0.646 ± 0.12 |
